Experimental data from the supplement of paper PMC9112550, “Optimization of the antimicrobial peptide Bac7 by deep mutational scanning” (BMC Biology, 2022).

Tested on: Escherichia coli TOP10
Experiment: shrunken log2 fold change of peptide-encoding DNA abundance (4.5 h post-induction vs induction); higher = less antimicrobial activity (less host growth inhibition)
Conditions: time post-induction: 4.5 h; library: site-saturation at positions 5, 18, 19, 20
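Note: peptides expressed intracellularly from a pBAD plasmid library in pooled LB shake-flask culture, induced with 0.3% L-arabinose, DNA abundance read by NGS, three biological replicates, DESeq2 with apeglm shrinkage.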

Sequence | shrunken log2 fold change
RRIRYRPPRLPRPRPRPERKPRP | -0.109
RRIRMRPPRLPRPRPRPYFCPRP | -0.352
RRIRFRPPRLPRPRPRPTNWPRP | 0.426
RRIRNRPPRLPRPRPRPQNRPRP | -0.184
RRIRIRPPRLPRPRPRPKCPPRP | -0.263
RRIRSRPPRLPRPRPRPDFPPRP | 0.0768
RRIRCRPPRLPRPRPRPSRVPRP | 0.247
RRIRCRPPRLPRPRPRPEVFPRP | 0.00979
RRIRFRPPRLPRPRPRPQGWPRP | 0.466
RRIRLRPPRLPRPRPRPGSKPRP | -0.559
RRIRYRPPRLPRPRPRPVKDPRP | -0.0122
RRIRWRPPRLPRPRPRPTGFPRP | 0.645
RRIRCRPPRLPRPRPRPDLVPRP | -0.0994
RRIRARPPRLPRPRPRPNSLPRP | -0.207
RRIRERPPRLPRPRPRPLEFPRP | -0.542
RRIRKRPPRLPRPRPRPRPEPRP | 0.162
RRIRQRPPRLPRPRPRPSQPPRP | -0.267
RRIRTRPPRLPRPRPRPELMPRP | 0.0498
RRIRGRPPRLPRPRPRPHACPRP | -0.0193
RRIRMRPPRLPRPRPRPSVWPRP | 0.275
RRIRVRPPRLPRPRPRPIWSPRP | 0.0334
RRIRYRPPRLPRPRPRPGTAPRP | -0.39
RRIRARPPRLPRPRPRPCVHPRP | 1.06
RRIRFRPPRLPRPRPRPNGRPRP | -0.123
RRIRKRPPRLPRPRPRPQIKPRP | 0.0963

Sequence | shrunken log2 fold change
RRIRCRPPRLPRPRPRPICQPRP | -0.0542
RRIRVRPPRLPRPRPRPMAWPRP | -0.114
RRIRTRPPRLPRPRPRPWVGPRP | -0.155
RRIRCRPPRLPRPRPRPMITPRP | -0.0256
RRIRIRPPRLPRPRPRPTEFPRP | -0.408
RRIRNRPPRLPRPRPRPNKNPRP | -0.406
RRIRHRPPRLPRPRPRPIIHPRP | 0.142
RRIRMRPPRLPRPRPRPQQWPRP | 0.153
RRIRNRPPRLPRPRPRPLFYPRP | -0.586
RRIRRRPPRLPRPRPRPNDQPRP | 0.261
RRIRARPPRLPRPRPRPQGRPRP | 0.104
RRIRIRPPRLPRPRPRPWVWPRP | 0.414
RRIRSRPPRLPRPRPRPNAMPRP | -0.0346
RRIRRRPPRLPRPRPRPQDRPRP | 0.0852
RRIRCRPPRLPRPRPRPVMKPRP | -0.342
RRIRQRPPRLPRPRPRPPEHPRP | 0.0412
RRIRSRPPRLPRPRPRPMFVPRP | -0.0773
RRIRERPPRLPRPRPRPLNIPRP | -0.662
RRIRMRPPRLPRPRPRPQKRPRP | 0.489
RRIRQRPPRLPRPRPRPHMWPRP | -0.129
RRIRSRPPRLPRPRPRPGGEPRP | 0.585
RRIRPRPPRLPRPRPRPEHGPRP | -0.0552
RRIRERPPRLPRPRPRPWPDPRP | -0.0169
RRIRARPPRLPRPRPRPSHGPRP | 0.115
RRIRCRPPRLPRPRPRPAHQPRP | 0.133

Sequence | shrunken log2 fold change
RRIRLRPPRLPRPRPRPWRRPRP | 0.0451
RRIRDRPPRLPRPRPRPFTNPRP | -0.0104
RRIRLRPPRLPRPRPRPENCPRP | -0.0062
RRIRIRPPRLPRPRPRPYMSPRP | -1.19
RRIRKRPPRLPRPRPRPICWPRP | 0.239
RRIRMRPPRLPRPRPRPSLPPRP | -0.0418
RRIRCRPPRLPRPRPRPGMCPRP | 0.125
RRIRVRPPRLPRPRPRPHSPPRP | -0.0205
RRIRLRPPRLPRPRPRPWCTPRP | 0.0254
RRIRYRPPRLPRPRPRPYTDPRP | -0.396
RRIRDRPPRLPRPRPRPQDAPRP | -0.103
RRIRVRPPRLPRPRPRPHRSPRP | -0.164
RRIRNRPPRLPRPRPRPCVTPRP | -0.0849
RRIRGRPPRLPRPRPRPWMKPRP | 0.0546
RRIRFRPPRLPRPRPRPTGVPRP | 0.123
RRIRVRPPRLPRPRPRPRESPRP | 0.259
RRIRWRPPRLPRPRPRPLEKPRP | 0.429
RRIRVRPPRLPRPRPRPQNTPRP | -0.524
RRIRFRPPRLPRPRPRPHQPPRP | 0.575
RRIRDRPPRLPRPRPRPGRPPRP | 0.136
RRIRYRPPRLPRPRPRPNTKPRP | -0.0891
RRIRIRPPRLPRPRPRPWTRPRP | -0.187
RRIRGRPPRLPRPRPRPQRSPRP | 0.16
RRIRRRPPRLPRPRPRPGCEPRP | 0.354
RRIRMRPPRLPRPRPRPYDGPRP | -0.0589

Sequence | shrunken log2 fold change
RRIRDRPPRLPRPRPRPWIKPRP | 0.00902
RRIRWRPPRLPRPRPRPSPYPRP | -0.25
RRIRDRPPRLPRPRPRPKYQPRP | -0.452
RRIRQRPPRLPRPRPRPGAWPRP | 0.256
RRIRKRPPRLPRPRPRPKHFPRP | 0.024
RRIRLRPPRLPRPRPRPELDPRP | 0.273
RRIRERPPRLPRPRPRPFRRPRP | 0.0491
RRIRPRPPRLPRPRPRPWKCPRP | 0.0176
RRIRCRPPRLPRPRPRPPKCPRP | 0.203
RRIRKRPPRLPRPRPRPPSLPRP | 0.46
RRIRCRPPRLPRPRPRPSGWPRP | 0.0712
RRIRHRPPRLPRPRPRPPWHPRP | -0.0707
RRIRPRPPRLPRPRPRPSVKPRP | -0.277
RRIRMRPPRLPRPRPRPILGPRP | -0.00884
RRIRFRPPRLPRPRPRPRMVPRP | -0.157
RRIRCRPPRLPRPRPRPPHVPRP | 0.385
RRIRDRPPRLPRPRPRPIMTPRP | 0.107
RRIRDRPPRLPRPRPRPPWMPRP | 0.261
RRIRWRPPRLPRPRPRPETPPRP | 1.33
RRIRFRPPRLPRPRPRPWNYPRP | -0.605
RRIRFRPPRLPRPRPRPHMSPRP | 0.0344
RRIRLRPPRLPRPRPRPMDEPRP | -0.119
RRIRVRPPRLPRPRPRPQPKPRP | 0.0199
RRIRTRPPRLPRPRPRPQIDPRP | -0.269
RRIRHRPPRLPRPRPRPWYQPRP | 0.0124

Sequence | shrunken log2 fold change
RRIRLRPPRLPRPRPRPGNKPRP | -0.46
RRIRKRPPRLPRPRPRPYSIPRP | -0.182
RRIRMRPPRLPRPRPRPQGMPRP | 0.0363
RRIRVRPPRLPRPRPRPIHLPRP | -0.197
RRIRGRPPRLPRPRPRPINIPRP | 0.00461
RRIRLRPPRLPRPRPRPQRTPRP | 0.43
RRIRNRPPRLPRPRPRPQYTPRP | -0.737
RRIRTRPPRLPRPRPRPFSWPRP | -0.294
RRIRNRPPRLPRPRPRPPGKPRP | 0.484
RRIRIRPPRLPRPRPRPVLVPRP | 0.0259
RRIRMRPPRLPRPRPRPLEFPRP | -0.102
RRIRCRPPRLPRPRPRPPDVPRP | 0.156
RRIRYRPPRLPRPRPRPCMYPRP | -0.101
RRIRHRPPRLPRPRPRPWVGPRP | 0.0323
RRIRHRPPRLPRPRPRPHPPPRP | 0.261
RRIRERPPRLPRPRPRPAMDPRP | 0.283
RRIRRRPPRLPRPRPRPRRTPRP | 0.46
RRIRQRPPRLPRPRPRPIQLPRP | -0.333
RRIRGRPPRLPRPRPRPHLCPRP | 0.58
RRIRPRPPRLPRPRPRPTRNPRP | 0.201
RRIRDRPPRLPRPRPRPYVQPRP | -0.13
RRIRVRPPRLPRPRPRPMPWPRP | 0.056
RRIRRRPPRLPRPRPRPVHQPRP | 0.208
RRIRERPPRLPRPRPRPLHRPRP | -0.0862
RRIRKRPPRLPRPRPRPFCCPRP | 0.27
